Results: publication PMC12041854, “CARM1/PRMT4 facilitates XPF–ERCC1 heterodimer assembly and maintains nucleotide excision repair activity” (Nucleic Acids Research, 2025)
Changes are numbered by the printed parent chain.

How the values were obtained:
Assay in all cases: pull-down; in vitro translated and purified XPF WT-Myc or R568K-Myc, with or without in vitro methylation by CARM1-FLAG beads (1 mM S-adenosylmethionine, 50 mM Tris-HCl pH 8.0, 10 mM DTT, 3 h at 30°C), then pulled down with GST-ERCC1; western blot
Settings in all cases: both partners purified
[1] = target: T1, in vitro translated XPF R568K-Myc (human, UniProt Q92889 1-916, R568K)
T1 construct: also called RK; source: in vitro translated (wheat germ cell-free system); used as reaction mixture, and purified (Ni-NTA, anti-Myc magnetic beads, Myc peptide elution)
T1 sequence: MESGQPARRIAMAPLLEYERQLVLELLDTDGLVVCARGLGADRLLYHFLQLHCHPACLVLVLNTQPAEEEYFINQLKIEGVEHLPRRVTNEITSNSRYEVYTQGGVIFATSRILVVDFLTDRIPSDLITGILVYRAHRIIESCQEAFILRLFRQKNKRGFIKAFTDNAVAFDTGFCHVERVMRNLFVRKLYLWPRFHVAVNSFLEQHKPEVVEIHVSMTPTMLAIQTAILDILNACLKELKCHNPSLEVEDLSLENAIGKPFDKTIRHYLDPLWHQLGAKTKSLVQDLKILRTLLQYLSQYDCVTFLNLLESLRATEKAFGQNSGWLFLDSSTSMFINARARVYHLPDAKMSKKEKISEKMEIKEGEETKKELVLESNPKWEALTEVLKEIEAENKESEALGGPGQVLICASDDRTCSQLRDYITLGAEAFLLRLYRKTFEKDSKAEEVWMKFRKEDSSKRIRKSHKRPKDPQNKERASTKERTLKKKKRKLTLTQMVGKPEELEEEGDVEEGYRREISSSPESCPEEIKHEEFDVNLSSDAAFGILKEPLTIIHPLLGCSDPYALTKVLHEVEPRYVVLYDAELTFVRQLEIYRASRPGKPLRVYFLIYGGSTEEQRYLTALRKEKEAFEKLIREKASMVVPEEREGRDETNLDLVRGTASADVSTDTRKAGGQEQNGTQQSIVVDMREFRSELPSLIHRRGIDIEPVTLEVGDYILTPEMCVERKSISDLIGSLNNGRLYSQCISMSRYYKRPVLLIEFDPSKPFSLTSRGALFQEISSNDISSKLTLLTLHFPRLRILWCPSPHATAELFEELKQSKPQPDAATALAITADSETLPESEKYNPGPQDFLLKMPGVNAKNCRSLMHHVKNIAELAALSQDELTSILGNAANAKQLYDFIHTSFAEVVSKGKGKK

[2] = target: T2, in vitro translated XPF WT-Myc (human, UniProt Q92889 1-916)
T2 construct: XPF (xeroderma pigmentosum group F protein), human; source: in vitro translated (wheat germ cell-free system, pEU-E01-MCS); used as reaction mixture, and purified (Ni-NTA, anti-Myc magnetic beads, Myc peptide elution)
T2 sequence: T1 sequence with K568R

[3] = target: T3, XPF R568K-Myc after the in vitro methylation assay with CARM1 (human, UniProt Q92889 1-916, R568K, subjected to the in vitro methylation assay with CARM1; methylated residues not stated)
T3 construct: also called R568K-Myc mutant after methylation assay
T3 sequence: T1 sequence

[4] = target: T4, XPF WT-Myc after CARM1-mediated methylation (human, UniProt Q92889 1-916, arginine methylation by CARM1 in vitro; the paper names R568 as the site whose methylation promotes binding to ERCC1)
T4 construct: XPF (xeroderma pigmentosum group F protein), human; also called methylated XPF WT-Myc
T4 sequence: T1 sequence with K568R

Measured: binding result

B1: GST-ERCC1 (natural protein, human)
chain: MDPGKDKEGVPQPSGPPARKKFVIPLDEDEVPPGVAKPLFRSTQSLPTVDTSAQAAPQTYAEYAISQPLEGAGATCPTGSEPLAGETPNQALKPGAKSNSIIVSPRQRGNPVLKFVRNVPWEFGDVIPDYVLGQSTCALFLSLRYHNLHPDYIHGRLQSLGKNFALRVLLVQVDVKDPQQALKELAKMCILADCTLILAWSPEEAGRYLETYKAYEQKPADLLMEKLEQDFVSRVTECLTTVKSVNKTDSQTLLTTFGSLEQLIAASREDLALCPGLGPQKARRLFDVLHEPFLKVP
notes: ERCC1 (excision repair cross-complementation group 1), human; also called E1; excision repair cross-complementation group 1; source: E. coli BL21 (pGEX 4T-3), purified (glutathione beads)
binds: [1] | [2] | [3] | [4]
